These results are taken from publication PMC4689322.

This data set deals with T1, MBNL1 ZnF3/4 (Homo sapiens, UniProt Q9NR56-2 178-246).
T1 sequence: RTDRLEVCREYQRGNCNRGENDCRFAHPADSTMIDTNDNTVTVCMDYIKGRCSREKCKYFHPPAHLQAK
Nature of the data set: intrinsic tyrosine fluorescence quenching.

Take UCGCUUUUCCCCUCCGCU (ssRNA) [hcTNT 18-nt (S10)]: the Kd was found to be 0.04 ± 0.01 µM.

What is called Kd is the equilibrium constant for the complex coming apart.
